Results from PMC4331669, “Phosphatidylinositol binding of Saccharomyces cerevisiae Pdr16p represents an essential feature of this lipid transfer protein to provide protection against azole antifungals” (Biochimica et Biophysica Acta. Molecular and Cell Biology …, 2014).

Molecular target: the molecule itself
Assay: SEC; Superose 12 10/300 GL, 20 mM PIPES pH 6.8, 250 mM NaCl, 2.7 mM KCl, 0.4 ml/min; BSA and ovalbumin as molecular weight standards; apparent mass about 90 kDa against a predicted monomer of 40.7 kDa

B1: Pdr16p (wild-type, recombinant Pdr16-His) (natural protein, S. cerevisiae, UniProt P53860 1-351, looked up)
chain: MFKRFSKKKEAPEDPKNLINIDKPIKELPASIAIPKEKPLTGEQQKMYDEVLKHFSNPDLKVYTSEKNKSEDDLKPLEEEEKAWLTRECFLRYLRATKWVLKDCIDRITMTLAWRREFGISHLGEEHGDKITADLVAVENESGKQVILGYENDARPILYLKPGRQNTKTSHRQVQHLVFMLERVIDFMPAGQDSLALLIDFKDYPDVPKVPGNSKIPPIGVGKEVLHILQTHYPERLGKALLTNIPWLAWTFLKLIHPFIDPLTREKLVFDEPFVKYVPKNELDSLYGGDLKFKYNHDVYWPALVETAREKRDHYFKRFQSFGGIVGLSEVDLRGTHEKLLYPVKSESSTV
notes: Pdr16p (Sfh3p) of Saccharomyces cerevisiae, ORF PDR16 amplified from YEplac181-PDR16 and inserted between NdeI and NotI of pET26; predicted monomer mass 40.7 kDa; The whole ORF was cloned NdeI-NotI into pET26 with a C-terminal 6xHis; No removal of the tag is described; also called Sfh3p; source: E. coli Rosetta, purified (Ni-NTA agarose)
stoichiometry N: 2

B2: Pdr16p^(E235A, K267A) (recombinant Pdr16^(E235A, K267A)-His) (natural protein, S. cerevisiae, UniProt P53860 1-351, looked up)
chain: MFKRFSKKKEAPEDPKNLINIDKPIKELPASIAIPKEKPLTGEQQKMYDEVLKHFSNPDLKVYTSEKNKSEDDLKPLEEEEKAWLTRECFLRYLRATKWVLKDCIDRITMTLAWRREFGISHLGEEHGDKITADLVAVENESGKQVILGYENDARPILYLKPGRQNTKTSHRQVQHLVFMLERVIDFMPAGQDSLALLIDFKDYPDVPKVPGNSKIPPIGVGKEVLHILQTHYPARLGKALLTNIPWLAWTFLKLIHPFIDPLTREALVFDEPFVKYVPKNELDSLYGGDLKFKYNHDVYWPALVETAREKRDHYFKRFQSFGGIVGLSEVDLRGTHEKLLYPVKSESSTV
notes: Same construct as m1 with the two point mutations; source: E. coli Rosetta, purified (Ni-NTA agarose)
stoichiometry N: 2
